Test results published in a protein production outcome set (Wang et al. 2014).

Assay: label from the status in PepcDB records

In the case of “MTKEKSTVPRLRFPGFTDAWKQRKLGEVADFSIKTNSLSRDKLSSYFYEVQNIHYGDILTKYDAILDVCNKELPSIIGSTISDFADALLSEGDIVFADAAEDSTVGKAIEVRNFKGKNVVSGLHTIVARPKVSYAPYYLGYLINSTAYHNQILPLMQGTKVSSISKANLKSTTVVFPTLPEQEAIGSFFSDLDQLITLHQRKLDDVKELKKALLQKMFPKGNGNDFPELRFPEFTDAWKQRKLGEFMKESKILGSKGDIARKLTVRLWGRGVVSKKEIYSGSSATQYYIRKSGQFIYGKLDFLNQAFGIIPPELDGYESTLDSPAFDLLKGINGQFLLEFVSRKEFYYYQGNIANGSRKAKRIHTETFLGMPISLPTLPEQEAIGSFFSDLDQLITLHQRK”, the protein production is reported as “failed”.

For “MAKKTSSKWYSTSAFSRLEKLGLRHPKPSPFIGNLTFFRQGFWESQMELRKLYGPLCGYYLGRRMFIVISEPDMIKQVLVENFSNFTNRMASGLEFKSVADSVLFLRDKRWEEVRGALMSAFSPEKLNEMVPLISQACDLLLAHLKRYAESGDAFDIQRCYCNYTTDVVASVAFGTPVDSWQAPEDPFVKHCKRFFENVELLGTPWLQVYNNFPALLDARILPNKNRDELNGFFNKLIRNVIALRDQQAAEERRRDFLQMVLDARHSASPMGVQDFDIVRDVFSSTGCKPNPSRQHQPSPMARPLTVDEIVGQAFIFLIAGYEIITNTLSFATYLLATNPDCQEKLLREVDVFKEKHMAPEFCSLEEGLPYLDMVIAETLRMYPPAFRFTREAAQDCEVLGQRIPAGAVLEMAVGALHHDPEHWPSPETFNPERFTAEARQQHRPFTYLPFGAGPRSCLGVRLGLLEVKLTLLHVLHKFRFQACPETQVPLQLESKSALGPKNGVYIKIVSRHHHH”, the protein production was “failed”.

With “MILIRYLIKEVFKSQIAILLILLLIFFSQQFVRVLGAAANGNVPADLVFSLLGLGMPTMAQLMLPLCLFIAILLTFGRLYAESEITVMRACGVGQRILVKVALIMSLLTAGIAAYNALWLSPWAIQKQVNMVEDAKANPTVGVLSSGQFISTNNNNVVLFIDKIKDNQIRNVYLFQMTPQKQTKPSVITAEKGELIALPNGDQVLNLKNTKRVEGTSALPDFRITHFDEYHAYLGYQSAENTNDEVAELTLSQLIDLDSSSAKAELHWRITLILAVPLMALIAVPLSRVNPRQGRFAKILPALLLYLIYFLLQSSFKSAGSAGKLEAELLMPLVNIGFFLLAVVLNSWDSEIMYKFRYLFSKKGSAKDDKYP” the protein production was “failed”.

For “MTGPAENSTNFPGHRLKSPLPLRLATLSLLILYPVAWFAPLMRAGLLPIFGLSEISVITGLQSLWASDVALALIVTAFALFAPYLKTIGTALIQWNLLDPRAQPALHILGKLAMADIFLIALYITLAKGISYATIEAAWGLYLFTACILASIALGLLTERQIRKATR”, the protein production was “failed”.

For “MSEKDFVQVAKLGKTVGLKGYVKLHNLSDFSSQFKKDATFFIKNTKEMLKIKHYNANNSTVLFENYEDIEKAKELTNLILFQSIEKSRQTCKLKKDEFFYFDILECEVFEEDKRLGKVVDILETGASYLFEIQSDEKWVEKKYPKIFFIPYLDKFVKNIDIEKRQIFCTQDAFLILENSLEHHHHHH”, the protein production was “not failed”.

In the case of “MRADALKRREHIITTTCNLYRTHHHDSLTMENIAEQAGVGVATLYRNFPDRFTLDMACAQYLFNVVISLQLQAISTFPTDPEGVWTSFNQLLFDRGLGSLVPALAPESLDDLPDEVSALRRTTEKNTTTLINLAKQHGLVHHDIAPGTYIVGLITISRPPITALATISENSHKALLGLYLSGLKHGMMANIGEHDGKS”, the protein production is reported as “not failed”.

For “VLLAITTGLVASLVNAKAYKGAEIFTNDAYLYGRYEIRMRVANASGILSTFFTYKNGSEVGNTFWEEIDIEVFGKNNATQWQSNIILGSSRPTIHTEEIHTADTSLADAYHTYVVEWTPDYVAWFLDGVEVRRITGTSTVTSLTNAQSLRFNIWSSESVPWVGAWDDSVLPVYQFVNYIDYKAYNATTKTFEGGWRDDFNNFDSSRWGKANWSFDMNRVDFAPENALVKDGILVLALTKENATGFNGTPPADEPASSSSSVAASSTPASSIAASSIAASVAASSVAVATSSVAASKASGGGSGGGAINGMWLLMLGSFVLLGWVHNQRQSHQQHQ”, the protein production was “failed”.

With “MDTTKTIAALFDFDGVIMDTETQYTVFWDEQGRKYLNEEDFGRRIKGQTLTQIYEKYFSDLPEAQQEITAGLNIYEKSMSYEYIPGVEAFIADLRKHGAKIAVVTSSNEEKMQNVYNAHPEFKGMVDRILTGEMFARSKPAPDCFLLGMEIFGATPENSYVFEDSFHGLQAGMTSGATVIGLATTNTREAITGKAHYIIDDFSEMTFEHLLALHR” the protein production was “failed”.

With “LPKPGVYYFPWEVSDGHVPEGSTLRTFGRLYLYDMARSLMTLAAPQKPDQCQLLVCTNLVEPFEAHVNFLYMVLGDLERMEGGAFVVRARLLTCVEGMDLSLLEKAILEQRRHLQKRQQPIGDASTLQTPTPAPQSIPSDSLSLEPENRG” the protein production was “failed”.

For “MAKNYYDITLALAGICQSARLVQQLAHQGHCDADALHVSLNSIIDMNPSSTLAVFGGSEANLRVGLETLLGVLNASSRQGLNAELTRYTLSLMVLERKLSSAKGALDTLGNRINGLQRQLEHFDLQSETLMSAMAAIYVDVISPLGPRIQVTGSPAVLQSPQVQAKVRATLLAGIRAAVLWHQVGGGRLQLMFSRNRLTTQAKQILAHLTPEL”, the protein production was “not failed”.

In the case of “QTDPKKPTTDEGTASSEVNATEEMSTLVNYIEPVKFKSFEAARKRNKCFEMSSFVETKAMEQLTKSPMEFVEYNKQQLSRIYPKGTRVDSSNYMPQLFWNVGCQLVALNFQTLDVAMQLNAGVFEYNGRSGYLLKPEFMRRPDKSFDPFTEVIVDGIVANALRVKVISGQFLSDRKVGIYVEVDMFGLPVDTRRKYRTRTSQGNSFNPVWDEEPFDFPKVVLPTLASLRIAAFEEGGKFVGHRILPVSAIRSGYHYVCLRNEANQPLCLPALLIYTEASDYIPDDHQDYAEALINPIKHVSLMDQRARQLAALIGESEAQAGQETCQDTQSQQLGSQPSSNPTPSPLD”, the protein production is reported as “failed”.

With “MTRVTTTGIPMNNVPSGRHHVSTSRNLFAWFLFALLLLSLYLSYQLVAPFLHTIILSSVFSASIYPFYRRLTSYLGERPVPAALLVLAGVVILVVIPVVVFVIGLIPQAVASVSAITRWLAGHGGLDGLNDAALAPYIAWVRENLPFIDPAQLDVRSSLVQASRAAGQTLLQWGTYVLGNTLLLFGHFLLLLLCMFFMLKDGAWMVQRVRYLSPLRIDQQDRIILELRRVGRSVLVGGLLVAVIQGLLGGVALAAVGIPALFWGTLMAFASLVPVVGTGLVWVPAVCYLLLTSQWESALFLSLWCGIVVVGADSILRPYFMRGGVGMPVFFIFLSILGGVKAFGMLGILDGPLILSFTVVMLSLYGDEYRDILDAGSLAHSRGAECEKGEASEEGPDGT” the protein production was “failed”.

For “MPRPLVDEVRFLRSWIEKPLHMGAVMPSGKLLARTMARYVDIQSDGPVIELGPGTGAITNALVEHGVDQKRLVLLEFDPGFCALLRERFPLAKVVQGDAYRLRDSLWDALEIPATAVVSGLPLVTKPMLTRMKLIRDAFTLLEPGAPFVQFTYSVAPPIPKSLPGVSTEGSERIWMNVPPARVWVYRKRLEHHHHHH”, the protein production was “not failed”.

In the case of “DKLDLSPIDYYGSGSYWKTEAQATAYIDGIHKHLRDAAWQHTITFGELRGGRFITGASSDGMGVSNGDIILQNFDETHTGVSKFGDLFGRITNLNLFIARVTDATYLSDEMKNFYLGEVYGLRAFYYFDLYRIYGGVPLRLTADVVEGVIDPNKLYMARSTPKEVMTQIKSDLNKSMEYFGNMNDFDPYKRGKKVYWSKAATECLMGEVYLWTSKVTTGDDVANPADLTIAKTHLESVLNNYNLKMLDDFSQVFNAKNKANDEIIFAIRFLEGEATNSNGTFTYNVGTGSTKNRYQANGEVFGDALDIQNTGNQTYEYNKAVYQNFDDADTRKEATFIASYNKDGKTGELSLYGTHVRKNIGYVNAQGARVYCGDYIFYRLPWVYLTLAEIANMEGDNAAVAKYINLVRKRAYGNAWDETLYAYPETADFTTNELAILHEKDKEFIQEGQRWWDLRRMTLTKGGTPLVFCKEGSLLGDAPILNKSTEAHKLLWPIEKTMLNKDPALEQTPGYK”, the protein production is reported as “not failed”.

With “MAKTLNSICFTTLLLVLLFISAEIPTAEANCDTYLGEVTVYYPCRERDCEAQCYEHYPHSCKGECEHHDHVVHHDNEEEHCHCYGR” the protein production was “failed”.

For “MAQYPEQLNGIFQALADPTRRAVLGRLSRGPATVSELAKPFDMALPSFMKHIHFLEDSGWIRTHKQGRVRTCAIEKEPFTAVEAWLAEQQELWESRTDRLEQFVTEHTVTAHAKATPQ”, the protein production was “not failed”.
